Experimental data reported in the supplement of paper PMC10567573.

B1: ALDH8A1 (parent)
chain: WSSRSPQERSRVLNQVADLLEQSL

Variants of: B1
Experiment: protein stability index of a GFP-peptide fusion (GPS, HEK-293T) (PSI 1-6); higher = more stable
Details: c terminus: a fixed tail appended
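Further: lentivirally expressed fusions sorted by FACS into six bins by GFP to DsRed ratio, PSI derived from sequencing read proportions per bin multiplied by bin number.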

First: WSSASPQERSRVLNQVADLLEQSL [R4A]
Second: WSSLSPQERSRVLNQVADLLEQSL [R4L]
The protein stability index of the first is higher: 2.18 for the first, 2.03 for the second.

Compared with WSSGSPQERSRVLNQVADLLEQSL [R4G], WSSYSPQERSRVLNQVADLLEQSL [R4Y] is lower in protein stability index: 2.52 for the first, 2.09 for the second.

Compared with WSSVSPQERSRVLNQVADLLEQSL [R4V], WSSESPQERSRVLNQVADLLEQSL [R4E] is higher in protein stability index: 2.02 for the first, 2.97 for the second.

Compared with WSSWSPQERSRVLNQVADLLEQSL [R4W], WSSISPQERSRVLNQVADLLEQSL [R4I] is lower in protein stability index: 2.68 for the first, 2.64 for the second.

First: WSSKSPQERSRVLNQVADLLEQSL [R4K]
Second: WSSMSPQERSRVLNQVADLLEQSL [R4M]
The protein stability index of the first is higher: 2.49 for the first, 2.22 for the second.

Compared with WSSTSPQERSRVLNQVADLLEQSL [R4T], WSSFSPQERSRVLNQVADLLEQSL [R4F] is lower in protein stability index: 2.62 for the first, 1.82 for the second.

Compared with WSSRSPQEKSRVLNQVADLLEQSL [R9K], WSSRSPQETSRVLNQVADLLEQSL [R9T] is lower in protein stability index: 2.83 for the first, 2.23 for the second.

First: WSSRSPQEASRVLNQVADLLEQSL [R9A]
Second: WSSRSPQEESRVLNQVADLLEQSL [R9E]
The protein stability index of the first is lower: 2.59 for the first, 3.38 for the second.

Compared with WSSRSPQEPSRVLNQVADLLEQSL [R9P], WSSRSPQEWSRVLNQVADLLEQSL [R9W] is lower in protein stability index: 3.37 for the first, 2.22 for the second.

Going from WPSRSPQERSRVLNQVADLLEQSL [S2P] to WLSRSPQERSRVLNQVADLLEQSL [S2L], the protein stability index falls from 2.92 to 1.8.

Going from WFSRSPQERSRVLNQVADLLEQSL [S2F] to WNSRSPQERSRVLNQVADLLEQSL [S2N], the protein stability index falls from 2.81 to 2.78.

First: WDSRSPQERSRVLNQVADLLEQSL [S2D]
Second: WVSRSPQERSRVLNQVADLLEQSL [S2V]
The protein stability index of the first is higher: 2.8 for the first, 2.76 for the second.

Compared with WSSRSPQERSRVLIQVADLLEQSL [N14I], WSSRSPQERSRVLMQVADLLEQSL [N14M] is lower in protein stability index: 2.02 for the first, 1.79 for the second.

Compared with WSSRSPQERSRVLAQVADLLEQSL [N14A], WSSRSPQERSRVLSQVADLLEQSL [N14S] is higher in protein stability index: 2.56 for the first, 2.58 for the second.

Compared with WSSRSPQERSRVLEQVADLLEQSL [N14E], WSSRSPQERSRVLRQVADLLEQSL [N14R] is higher in protein stability index: 3.24 for the first, 3.47 for the second.

Going from WSSRSPQERSRVLKQVADLLEQSL [N14K] to WSSRSPQERSRVLDQVADLLEQSL [N14D], the protein stability index rises from 1.97 to 2.28.

Going from WSSRSPQERSRVLNQVADLLEMSL [Q22M] to WSSRSPQERSRVLNQVADLLEGSL [Q22G], the protein stability index rises from 1.83 to 2.98.

Going from WSSRSPQERSRVYNQVADLLEQSL [L13Y] to WSSRSPQERSRVVNQVADLLEQSL [L13V], the protein stability index rises from 2.6 to 3.13.

Compared with WSSRSPQERSRVFNQVADLLEQSL [L13F], WSSRSPQERSRVNNQVADLLEQSL [L13N] is higher in protein stability index: 2.4 for the first, 3.54 for the second.

Compared with WSSRSPQERSRVTNQVADLLEQSL [L13T], WSSRSPQERSRVINQVADLLEQSL [L13I] is lower in protein stability index: 3.5 for the first, 3.06 for the second.

First: WSSRSPQERSRVCNQVADLLEQSL [L13C]
Second: WSSRSPQERSRVENQVADLLEQSL [L13E]
The protein stability index of the first is lower: 3.11 for the first, 3.49 for the second.

Compared with WSSRSPQERSRVPNQVADLLEQSL [L13P], WSSRSPQERSRVQNQVADLLEQSL [L13Q] is lower in protein stability index: 4.09 for the first, 3.85 for the second.

First: WSSRTPQERSRVLNQVADLLEQSL [S5T]
Second: WSSRYPQERSRVLNQVADLLEQSL [S5Y]
The protein stability index of the first is higher: 2.57 for the first, 1.6 for the second.

Compared with WSSRPPQERSRVLNQVADLLEQSL [S5P], WSSRNPQERSRVLNQVADLLEQSL [S5N] is lower in protein stability index: 2.57 for the first, 2.43 for the second.

First: WSSRHPQERSRVLNQVADLLEQSL [S5H]
Second: WSSRDPQERSRVLNQVADLLEQSL [S5D]
The protein stability index of the first is lower: 2.14 for the first, 2.85 for the second.

Going from WSSRWPQERSRVLNQVADLLEQSL [S5W] to WSSRAPQERSRVLNQVADLLEQSL [S5A], the protein stability index rises from 1.59 to 2.62.

Compared with WSSRFPQERSRVLNQVADLLEQSL [S5F], WSSRQPQERSRVLNQVADLLEQSL [S5Q] is higher in protein stability index: 1.99 for the first, 3.01 for the second.

First: WSSRIPQERSRVLNQVADLLEQSL [S5I]
Second: WSSRMPQERSRVLNQVADLLEQSL [S5M]
The protein stability index of the first is lower: 2.4 for the first, 2.54 for the second.

Going from WSSRSPQERSRVLNQVADLLEQML [S23M] to WSSRSPQERSRVLNQVADLLEQHL [S23H], the protein stability index rises from 2.3 to 2.77.

Going from WSSRSPQERSRVLNQVADLLEQYL [S23Y] to WSSRSPQERSRVLNQVADLLEQCL [S23C], the protein stability index rises from 1.72 to 1.96.

Going from WSSRSPQERSRVLNQVADLLEQIL [S23I] to WSSRSPQERSRVLNQVADLLEQGL [S23G], the protein stability index rises from 2.51 to 2.54.

Compared with WSSRSPQERSRVLNQVADLLEQWL [S23W], WSSRSPQERSRVLNQVADLLEQKL [S23K] is higher in protein stability index: 1.94 for the first, 3.53 for the second.

Going from WSSRSPQERSRVLNQVADLLEQAL [S23A] to WSSRSPQVRSRVLNQVADLLEQSL [E8V], the protein stability index falls from 2.31 to 2.23.

Compared with WSSRSPQYRSRVLNQVADLLEQSL [E8Y], WSSRSPQIRSRVLNQVADLLEQSL [E8I] is lower in protein stability index: 2.71 for the first, 2.68 for the second.

Compared with WSSRSPQQRSRVLNQVADLLEQSL [E8Q], WSSRSPQGRSRVLNQVADLLEQSL [E8G] is lower in protein stability index: 2.57 for the first, 2.17 for the second.

Going from WSSRSPQARSRVLNQVADLLEQSL [E8A] to WSSRSPQFRSRVLNQVADLLEQSL [E8F], the protein stability index falls from 2.31 to 2.01.

First: WSSRSPCERSRVLNQVADLLEQSL [Q7C]
Second: WSSRSPDERSRVLNQVADLLEQSL [Q7D]
The protein stability index of the first is lower: 2.24 for the first, 2.96 for the second.

Compared with WSSRSPLERSRVLNQVADLLEQSL [Q7L], WSSRSPYERSRVLNQVADLLEQSL [Q7Y] is lower in protein stability index: 1.91 for the first, 1.79 for the second.

Compared with WSSRSPRERSRVLNQVADLLEQSL [Q7R], WSSRSPMERSRVLNQVADLLEQSL [Q7M] is lower in protein stability index: 2.62 for the first, 2.23 for the second.

First: WSSRSPSERSRVLNQVADLLEQSL [Q7S]
Second: WSSRSPWERSRVLNQVADLLEQSL [Q7W]
The protein stability index of the first is lower: 2.21 for the first, 2.37 for the second.

Going from WSSRSPFERSRVLNQVADLLEQSL [Q7F] to WSERSPQERSRVLNQVADLLEQSL [S3E], the protein stability index rises from 1.77 to 3.5.

Going from WSFRSPQERSRVLNQVADLLEQSL [S3F] to WSKRSPQERSRVLNQVADLLEQSL [S3K], the protein stability index rises from 1.88 to 2.53.

Going from WSHRSPQERSRVLNQVADLLEQSL [S3H] to WSLRSPQERSRVLNQVADLLEQSL [S3L], the protein stability index falls from 2.52 to 1.98.

Going from WSVRSPQERSRVLNQVADLLEQSL [S3V] to WSIRSPQERSRVLNQVADLLEQSL [S3I], the protein stability index falls from 2.78 to 2.2.

Compared with WSPRSPQERSRVLNQVADLLEQSL [S3P], WSSRSPQERSRVLNQVADLLEQSD [L24D] is higher in protein stability index: 2.54 for the first, 4.17 for the second.

Compared with WSSRSPQERSRVLNQVADLLEQSA [L24A], WSSRSPQERSRVLNQVADLLEQSS [L24S] is higher in protein stability index: 2.88 for the first, 3.61 for the second.

Going from WSSRSPQERSRVLNQVADLLEQSW [L24W] to WSSRSPQERSRVLNQVADLLEQSC [L24C], the protein stability index rises from 2.19 to 2.9.
